Experimental data reported in US20220411523A1 (HEFEI HANKEMAB BIOTECHNOLOGY, published 2022).
Like-named read-outs stand apart in the source and are kept apart here. One block for each binder: values may come before it.

Key:
[1] = target: T1, human 4-1BB full length, on the cell surface (human, UniProt Q07011 24-255); experiment: FACS, CHO-K1-hu4-1BB cells
T1 construct: also called CHO-K1-hu4-1BB; WT (Human 4-1BB full length, Expi293 transient)

[2] = target: T2, human 4-1BB (SEQ ID No.5), coated on the ELISA plate (human, UniProt Q07011 24-186, limits assumed); experiment: ELISA, coated human 4-1BB
T2 construct: also called CD137

[3] = target: T3, monkey 4-1BB (Cy4-1BB) (SEQ ID No.6), coated on the ELISA plate (monkey, UniProt Q07011 24-186 (human entry), limits assumed); experiment: ELISA, coated monkey 4-1BB
T3 chain: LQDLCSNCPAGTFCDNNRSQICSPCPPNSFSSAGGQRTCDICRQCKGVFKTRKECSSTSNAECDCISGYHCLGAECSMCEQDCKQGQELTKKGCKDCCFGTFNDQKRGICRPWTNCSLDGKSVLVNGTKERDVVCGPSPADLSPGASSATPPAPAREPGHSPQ

[4] = target: T4, monkey 4-1BB on the cell membrane surface of CHO-K1 cells (monkey, UniProt Q07011 24-255 (human entry)); experiment: FACS, CHO-K1-cy4-1BB cells
T4 construct: also called CHO-K1-cy4-1BB
T4 chain: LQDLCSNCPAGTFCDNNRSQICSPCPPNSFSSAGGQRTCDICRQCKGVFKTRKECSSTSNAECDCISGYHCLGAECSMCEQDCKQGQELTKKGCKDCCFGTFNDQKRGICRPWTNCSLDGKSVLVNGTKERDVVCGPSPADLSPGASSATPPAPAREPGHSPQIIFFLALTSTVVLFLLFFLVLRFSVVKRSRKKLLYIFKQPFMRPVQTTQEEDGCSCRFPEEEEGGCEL

[5] = target: T1, human 4-1BB full length, on the cell …; experiment: FACS, CHO-K1-hu4-1BB cells; remark: listed apart in the source
[6] = target: T5, h4-1BB-His antigen (Acro company, product number: Q07011-1) (human, UniProt Q07011 24-186); experiment: BLI (Fortebio), h4-1BB-His
T5 construct: Q07011-1 is printed as a product number; not shown: His tag

[7] = target: T1, human 4-1BB full length, on the cell …; experiment: FACS competition, CHO-K1-hu4-1BB; labelled Bio-4-1BBL 2 µg/ml fixed, competitor varied
[8] = target: T1, human 4-1BB full length, on the cell …; experiment: FACS competition, CHO-K1-hu4-1BB; labelled Bio-Hanke10F4 1.5 µg/ml fixed, competitor varied
[9] = target: T1, human 4-1BB full length, on the cell …; experiment: as above; remark: listed apart in the source
[10] = target: T1, human 4-1BB full length, on the cell …; experiment: FACS (MFI) on cells transiently transfected with human 4-1BB WT, antibody titrated from about 0.04 to 10 µg/ml
[11] = target: T6, human 4-1BB N42R, on the cell surface (human, UniProt Q07011 24-255); experiment: FACS (MFI) on cells transiently transfected with human 4-1BB N42R, antibody titrated from about 0.04 to 10 µg/ml
T6 construct: Point mutant of human 4-1BB on transiently transfected cells

[12] = target: T7, human 4-1BB I132R, on the cell surface (human, UniProt Q07011 24-255); experiment: FACS (MFI) on cells transiently transfected with human 4-1BB I132R, antibody titrated from about 0.04 to 10 µg/ml
T7 construct: Point mutant of human 4-1BB on transiently transfected cells

[13] = target: T8, human 4-1BB M101R, on the cell surface (human, UniProt Q07011 24-255); experiment: FACS (MFI) on cells transiently transfected with human 4-1BB M101R, antibody titrated from about 0.04 to 10 µg/ml
T8 construct: Point mutant of human 4-1BB on transiently transfected cells

T5 sequence (Q07011 24-186, one chain of several): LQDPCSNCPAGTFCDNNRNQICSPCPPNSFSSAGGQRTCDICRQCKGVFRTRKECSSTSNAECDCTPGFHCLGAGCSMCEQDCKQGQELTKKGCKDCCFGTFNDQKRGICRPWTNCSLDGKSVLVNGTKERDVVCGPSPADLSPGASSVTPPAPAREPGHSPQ
T2 sequence (Q07011 24-186 limits assumed): as the sequence (Q07011 24-186, one chain of several) above

- EC50 [1]: 1.8 µg/mL
B1: HKB6 (antibody, V domains shown)
VH: QVQLKESGPGLVAPSQSLSITCTVSGFSLTTYDISWIRQPPGKGLEWLGVIWTGGGTNYNSTFMSRLSINKDNSKSQVFLKMNSLQTDDTAIYYCVRVDYWGQGTSVTVSS
VL: DVVMTQTPLSLPVSLGDQASISCRSSQSLVHSNGNTYLHWFLQKPGQSPKLLIYKVSNRFPGVPDRFSGSGSGTDFTLKISRVEAEDLGVYFCSQNTHVPWTFGGGTKLEIKR

- EC50 [2]: 0.0186 µg/mL
- EC50 [3]: 0.0267 µg/mL
- EC50 [4]: 1.81 µg/mL
- EC50 [5]: 1.77 µg/mL
- EC50 [1]: 1.6 µg/mL
- Kd [6]: 13.9 nM
- koff [6]: 0.00241 s⁻¹
- kon [6]: 173000 M⁻¹ s⁻¹
- FACS signal of Bio-4-1BBL at (B:A) Ratio 0.03906 [7]: 7700
- FACS signal of Bio-4-1BBL at (B:A) Ratio 0.15625 [7]: 7460
- FACS signal of Bio-4-1BBL at (B:A) Ratio 0.625 [7]: 6920
- FACS signal of Bio-4-1BBL at (B:A) Ratio 2.5 [7]: 5860
- FACS signal of Bio-4-1BBL at (B:A) Ratio 10 [7]: 4310
- FACS signal of Bio-4-1BBL at (B:A) Ratio 40 [7]: 3510
- FACS signal of Bio-Hanke10F4 at (B:A) Ratio 0.058593 [8]: 7260
- FACS signal of Bio-Hanke10F4 at (B:A) Ratio 0.23437 [8]: 6840
- FACS signal of Bio-Hanke10F4 at (B:A) Ratio 0.9375 [8]: 5000
- FACS signal of Bio-Hanke10F4 at (B:A) Ratio 3.75 [8]: 1740
- FACS signal of Bio-Hanke10F4 at (B:A) Ratio 15 [8]: 635
- FACS signal of Bio-Hanke10F4 at (B:A) Ratio 60 [8]: 230
- FACS signal of Bio-Hanke10F4 at (B:A) Ratio 0.05859375 [9]: 7260
- FACS signal of Bio-Hanke10F4 at (B:A) Ratio 0.234375 [9]: 6840
- FACS signal of Bio-Hanke10F4 at (B:A) Ratio 0.9375 [9]: 5000
- FACS signal of Bio-Hanke10F4 at (B:A) Ratio 3.75 [9]: 1740
- FACS signal of Bio-Hanke10F4 at (B:A) Ratio 15 [9]: 635
- FACS signal of Bio-Hanke10F4 at (B:A) Ratio 60 [9]: 230
- EC50 (read off the curve) [10]: ~0.7 µg/mL
- EC50 (read off the curve) [11]: ~0.7 µg/mL
- EC50 (read off the curve) [12]: ~0.7 µg/mL
- EC50 (read off the curve) [13]: ~0.7 µg/mL
B2: Hanke10F4 (antibody, human IgG4 S228P, kappa, V domains shown)
VH: QVQLQESGPGLVKPSETLSITCTVSGSSLTSYGVHWVRQPPGKGLEGLGVIWPGGSTNYNSALMSRLTISKDNSKSQVSLKMSSLTAADTAMYYCARVTGTWYFDVWGQGTTVTVSS
VL: DIQMTQSPSSLSASLGDRVTISCSASQGISNYLNWYQQKPDGTVKLLIYYTSTLHSGVPSRFSGSGSGTDFTLTISSLQPEDVATYYCQQYSKLPWTFGGGTKLEIKR
notes: Heavy chain type IgG4, light chain kappa; Humanized from hybridoma antibody 37G10F4, transformed from scFvB60103; also called humanized anti-human 4-1BB antibody Hanke10F4; Hanke10F4 monoclonal antibody
